Numbering of substitutions follows the chain as printed. Names and notes keep the numbering of the source.
Test system: engineered chimeric receptor SEQ ID NO: 33 and its mutants (human α7-nAChR ligand binding domain / human GlyRα1 ion pore domain) in Lenti-X 293T cells
Assay: YFP fluorescence quenching anion reporter plate reader assay (percent quench, EC50)
Format: cell-based
Settings: for YFP fluorescence quenching using CNL001 (percent quench): receptor named in row; for YFP fluorescence quenching using Facinicline, 30 nM fac: ligand Facinicline 30 nM; for YFP fluorescence quenching using Facinicline, 300 nM fac: ligand Facinicline 300 nM; for YFP fluorescence quenching using Facinicline, 30 uM fac: ligand Facinicline 30 uM; for YFP fluorescence quenching using TC-6987, 1 uM tc6987: ligand TC-6987 1 uM; for YFP fluorescence quenching using TC-6987, 10 uM tc6987: ligand TC-6987 10 uM; for YFP fluorescence quenching using TC-6987, 500 uM tc6987: ligand TC-6987 500 uM; for YFP fluorescence quenching using Varenicline, 3 nM var: ligand Varenicline 3 nM; for YFP fluorescence quenching using Varenicline, 30 nM var: ligand Varenicline 30 nM; for YFP fluorescence quenching using Varenicline, 300 nM var: ligand Varenicline 300 nM; for YFP fluorescence quenching using Varenicline, 500 nM var: ligand Varenicline 500 nM; for YFP fluorescence quenching using Varenicline, 1 uM var: ligand Varenicline 1 uM
Procedure, shortened: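 Lenti-X 293T cells co-expressing an anion-quenchable YFP were transiently transfected with receptor DNA, then ligand was added in NaI-substituted buffer (pH 7.2) after 30 min at 37 °C. Fluorescence was read about 2 min; percent quench = mean of last 10 s over 15 s pre-ligand baseline.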

[1] = 1 nM CNL001, first column so headed
[2] = 1 nM CNL001, second column so headed
[3] = 3 nM brd (TC-5619/Bradanicline)
[4] = 10 nM CNL001, first column so headed
[5] = 10 nM CNL001, second column so headed
[6] = 30 nM brd (TC-5619/Bradanicline)
[7] = 50 nM CNL001, first column so headed
[8] = 50 nM CNL001, second column so headed
[9] = 100 nM CNL001, first column so headed
[10] = 100 nM CNL001, second column so headed
[11] = 300 nM brd (TC-5619/Bradanicline)
[12] = 1 uM CNL001, first column so headed
[13] = 1 uM CNL001, second column so headed

B1: CODA405: engineered receptor: Y210V in SEQ ID NO: 33 (protein)
chain: MRCSPGGVWLALAASLLHVSLQGEFQRKLYKELVKNYNPLERPVANDSQPLTVYFSLSLLQIMDVDEKNQVLTTNIWLQMSWTDHYLQWNVSEYPGVKTVRFPDGQIWKPDILLYNSADERFDATFHTNVLVNSSGHCQYLPPGIFKSSCPMDLKNFPMDVQTCKLKFGSWSYGGWSLDLQMQEADISGYIPNGEWDLVGIPGKRSERFVECCKEPYPDVTFTVTMRRRMGYYLIQMYIPSLLIVILSWISFWINMDAAPARVGLGITTVLTMTTQSSGSRASLPKVSYVKAIDIWMAVCLLFVFSALLEYAAVNFVSRQHKELLRFRRKRRHHKSPMLNLFQEDEAGEGRFNFSAYGMGPACLQAKDGISVKGANNSNTTNPPPAPSKSPEEMRKLFIQRAKKIDKISRIGFPMAFLIFNMFYWIIYKIVRREDVHNQ
modifications: synthetic sequence of chimeric LGIC
For B1, the “YFP fluorescence quenching using CNL001 (percent quench)” value [1] was −16.246%, the “YFP fluorescence quenching using CNL001 (percent quench)” value [2] was −4.217% and the “YFP fluorescence quenching using TC-5619/Bradanicline (percent quench)” value [3] was 9.92%. For the same molecule, the “YFP fluorescence quenching using CNL001 (percent quench)” value [4] was −6.142%, the “YFP fluorescence quenching using CNL001 (percent quench)” value [5] was −10.003% and the “YFP fluorescence quenching using TC-5619/Bradanicline (percent quench)” value [6] was 4.37%. The “YFP fluorescence quenching using CNL001 (percent quench)” value [7] was −11.054%, the “YFP fluorescence quenching using CNL001 (percent quench)” value [8] was −10.06% and the “YFP fluorescence quenching using ABT-126 (percent quench)” value (50 nM abt (ABT-126)) was −2.9%. The “YFP fluorescence quenching using CNL001 (percent quench)” value [9] was −3.832%, the “YFP fluorescence quenching using CNL001 (percent quench)” value [10] was −3.784% and the “YFP fluorescence quenching (percent quench)” value (100 nM CNL002) was −14.3%. For the same molecule, the “YFP fluorescence quenching using ABT-126 (percent quench)” value (100 nM abt (ABT-126)) was −2.06%, the “YFP fluorescence quenching using AZD-0328 (percent quench)” value (100 nM azd0328) was −8.13% and the “YFP fluorescence quenching using ABT-126 (percent quench)” value (300 nM abt (ABT-126)) was −0.19%. For the same molecule, the “YFP fluorescence quenching using AZD-0328 (percent quench)” value (300 nM azd0328) was −3.35%, the “YFP fluorescence quenching using TC-5619/Bradanicline (percent quench)” value [11] was 59% and the “YFP fluorescence quenching using CNL001 (percent quench)” value [12] was 1.129%. For the same molecule, the “YFP fluorescence quenching using CNL001 (percent quench)” value [13] was 7.1%, the “YFP fluorescence quenching (percent quench)” value (1 uM CNL002) was −7.56% and the “YFP fluorescence quenching using ABT-126 (percent quench)” value (1 uM abt (ABT-126)) was −3.64%. For the same molecule, the “YFP fluorescence quenching (percent quench)” value (10 uM ach (acetylcholine)) was −6.31%, the “YFP fluorescence quenching (percent quench)” value (30 uM CNL002) was −2.02% and the “YFP fluorescence quenching using AZD-0328 (percent quench)” value (30 uM azd0328) was −2.86%. For the same molecule, the “YFP fluorescence quenching (percent quench)” value (100 uM ach (acetylcholine)) was −14.48%, the “YFP fluorescence quenching (percent quench)” value (1 mM ach (acetylcholine)) was −2.82% and the “YFP fluorescence quenching (percent quench)” value (3 mM ach (acetylcholine)) was 1.06%. For the same molecule, the “YFP fluorescence quenching using Facinicline, 30 nM fac” value was −26.25, the “YFP fluorescence quenching using Facinicline, 300 nM fac” value was −23.52 and the “YFP fluorescence quenching using Facinicline, 30 uM fac” value was 0.83. For the same molecule, the “YFP fluorescence quenching using TC-6987, 1 uM tc6987” value was −22.63, the “YFP fluorescence quenching using TC-6987, 10 uM tc6987” value was −23.03 and the “YFP fluorescence quenching using TC-6987, 500 uM tc6987” value was −40.88. The “YFP fluorescence quenching using Varenicline, 3 nM var” value (from here on “YFP fluorescence quenching … 3 nM var”) (first column) was 7.317, the “YFP fluorescence quenching … 3 nM var” value (second column) was 7.643 and the “YFP fluorescence quenching using Varenicline, 30 nM var” value (from here on “YFP fluorescence quenching … 30 nM var”) (first column) was 9.457. For the same molecule, the “YFP fluorescence quenching … 30 nM var” value (second column) was 9.134, the “YFP fluorescence quenching using Varenicline, 300 nM var” value (shortened to “YFP fluorescence quenching … 300 nM var”) (first column) was 15.503 and the “YFP fluorescence quenching … 300 nM var” value (second column) was 11.954. The “YFP fluorescence quenching using Varenicline, 500 nM var” value (“YFP fluorescence quenching … 500 nM var” for short) (first column) was 13.427, the “YFP fluorescence quenching … 500 nM var” value (second column) was 10.784 and the “YFP fluorescence quenching using Varenicline, 1 uM var” value (“YFP fluorescence quenching … 1 uM var” below) (first column) was 9.032. For the same molecule, the “YFP fluorescence quenching … 1 uM var” value (second column) was 11.591.

B2: CODA407: engineered receptor: Y210F in SEQ ID NO: 33 (protein)
chain: B1 chain with V210F
modifications: synthetic sequence of chimeric LGIC
B2 was tested, and the “YFP fluorescence quenching using CNL001 (percent quench)” value [1] was −10.845%, the “YFP fluorescence quenching using CNL001 (percent quench)” value [2] was −2.629% and the “YFP fluorescence quenching using TC-5619/Bradanicline (percent quench)” value [3] was −0.53%. The “YFP fluorescence quenching using CNL001 (percent quench)” value [4] was 4.66%, the “YFP fluorescence quenching using CNL001 (percent quench)” value [5] was 12.246% and the “YFP fluorescence quenching using TC-5619/Bradanicline (percent quench)” value [6] was 8.71%. The “YFP fluorescence quenching using CNL001 (percent quench)” value [7] was 29.307%, the “YFP fluorescence quenching using CNL001 (percent quench)” value [8] was 41.78% and the “YFP fluorescence quenching using ABT-126 (percent quench)” value (50 nM abt (ABT-126)) was −13.07%. For the same molecule, the “YFP fluorescence quenching using CNL001 (percent quench)” value [9] was 50.654%, the “YFP fluorescence quenching using CNL001 (percent quench)” value [10] was 62.054% and the “YFP fluorescence quenching (percent quench)” value (100 nM CNL002) was −12.47%. The “YFP fluorescence quenching using ABT-126 (percent quench)” value (100 nM abt (ABT-126)) was 0.1%, the “YFP fluorescence quenching using AZD-0328 (percent quench)” value (100 nM azd0328) was 0.85% and the “YFP fluorescence quenching using ABT-126 (percent quench)” value (300 nM abt (ABT-126)) was 5.97%. For the same molecule, the “YFP fluorescence quenching using AZD-0328 (percent quench)” value (300 nM azd0328) was 1.25%, the “YFP fluorescence quenching using TC-5619/Bradanicline (percent quench)” value [11] was 76.26% and the “YFP fluorescence quenching using CNL001 (percent quench)” value [12] was 81.742%. The “YFP fluorescence quenching using CNL001 (percent quench)” value [13] was 81.304%, the “YFP fluorescence quenching (percent quench)” value (1 uM CNL002) was −3.93% and the “YFP fluorescence quenching using ABT-126 (percent quench)” value (1 uM abt (ABT-126)) was 50.23%. The “YFP fluorescence quenching (percent quench)” value (10 uM ach (acetylcholine)) was −3.75%, the “YFP fluorescence quenching (percent quench)” value (30 uM CNL002) was 80.97% and the “YFP fluorescence quenching using AZD-0328 (percent quench)” value (30 uM azd0328) was 82.08%. For the same molecule, the “YFP fluorescence quenching (percent quench)” value (100 uM ach (acetylcholine)) was −1.6%, the “YFP fluorescence quenching (percent quench)” value (1 mM ach (acetylcholine)) was 71.65% and the “YFP fluorescence quenching (percent quench)” value (3 mM ach (acetylcholine)) was 79.09%. The “YFP fluorescence quenching using Facinicline, 30 nM fac” value was −21.94, the “YFP fluorescence quenching using Facinicline, 300 nM fac” value was −22.46 and the “YFP fluorescence quenching using Facinicline, 30 uM fac” value was 82.63. The “YFP fluorescence quenching using TC-6987, 1 uM tc6987” value was −15.22, the “YFP fluorescence quenching using TC-6987, 10 uM tc6987” value was −19.89 and the “YFP fluorescence quenching using TC-6987, 500 uM tc6987” value was −33.32. The “YFP fluorescence quenching … 3 nM var” value (first column) was 2.441, the “YFP fluorescence quenching … 3 nM var” value (second column) was 7.326 and the “YFP fluorescence quenching … 30 nM var” value (first column) was 1.275. The “YFP fluorescence quenching … 30 nM var” value (second column) was 12.96, the “YFP fluorescence quenching … 300 nM var” value (first column) was 13.119 and the “YFP fluorescence quenching … 300 nM var” value (second column) was 2.355. For the same molecule, the “YFP fluorescence quenching … 500 nM var” value (first column) was 11.539, the “YFP fluorescence quenching … 500 nM var” value (second column) was 6.571 and the “YFP fluorescence quenching … 1 uM var” value (first column) was 8.397. The “YFP fluorescence quenching … 1 uM var” value (second column) was 7.309.

Reference: US20250152742A1, “COMPOSITIONS AND METHODS FOR NEUROLOGICAL DISEASES” (Trames Bio, Inc., priority 2022, published 2025)
